How the values were obtained:
Format in all cases: in vivo
C57BL/6J mice [1] = assay: Airway hyper-responsiveness (AHR) with FlexiVent system in APO-induced asthma model; conditions: 50 uL of 1 mg/ml, 1 h before allergen challenge; in comparison with control ferritin; FIG. 17a
Method: (§1) Wild-type C57BL/6J mice were purchased from Jackson Laboratory (Bar Harbor, Me., USA), and bred in a pathogen-free animal facility. All animals were fed with a normal diet (PMI Lab Diet) with free access to water. 6-8-week-old female mice were used for this study. Animal care and experimental procedures were performed with the approval of the Animal Care Committee of KAIST.
(§2) Asthma induction was performed by the existing method (Corry D B, Folkesson H G, Warnock M L, Erle D J, Matthay M A, et al. (1996) J Exp Med 183: 109117).
Briefly, Aspergillus oryzae protease (1 mg/mL in PBS, Sigma-Aldrich) and chicken egg ovalbumin (OVA, 0.5 mg/mL in PBS, Sigma-Aldrich) allergen (APO) were mixed 1:9 (v/v) immediately before administration. Mice received four intraperitoneal sensitizations and the intranasal challenge every 4 days (0, 4, 8, 12, 16) with 50 uL of allergen. For intranasal challenge, mice were lightly anesthetized with isoflurane inhalation (Abbott Laboratory, Abbott Park, Ill., USA). A 50 uL of AP1-retaining ferritin cage (GG-AP1L, 157cysAP1-PBNC) or AP1-not-inserted ferritin cage (wt FTL), which was diluted to 1 mg/ml in PBS, was administered 1 h before allergen challenge. […]
Briefly, 16 h after final intranasal challenge, AHR was measured with a FlexiVent system (SCIREQ Inc., Montreal, Canada). […]

C57BL/6J mice [2] = assay: BAL cytology in APO-induced asthma model; conditions: 50 uL of 1 mg/ml, 1 h before allergen challenge; in comparison with control ferritin
Method: as §1, §2
(§3) Briefly, Aspergillus oryzae protease (1 mg/mL in PBS, Sigma-Aldrich) and chicken egg ovalbumin (OVA, 0.5 mg/mL in PBS, Sigma-Aldrich) allergen (APO) were mixed 1:9 (v/v) immediately before administration. Mice received four intraperitoneal sensitizations and the intranasal challenge every 4 days (0, 4, 8, 12, 16) with 50 uL of allergen. For intranasal challenge, mice were lightly anesthetized with isoflurane inhalation (Abbott Laboratory, Abbott Park, Ill., USA). A 50 uL of AP1-retaining ferritin cage (GG-AP1L, 157cysAP1-PBNC) or AP1-not-inserted ferritin cage (wt FTL), which was diluted to 1 mg/ml in PBS, was administered 1 h before allergen challenge.
For phenotypes of allergic asthma, AHR, BAL cytology, BAL glycoprotein assay, and lung histopathology were performed by the existing method (Lee, S. H., et al. (2003) Nat. Med. 9, 128111286). […]

C57BL/6J mice [3] = assay: Secreted glycoprotein in BAL fluid (modified ELISA) in APO-induced asthma model; conditions: 50 uL of 1 mg/ml, 1 h before allergen challenge; FIG. 17d
Method: as §1
Briefly, Aspergillus oryzae protease (1 mg/mL in PBS, Sigma-Aldrich) and chicken egg ovalbumin (OVA, 0.5 mg/mL in PBS, Sigma-Aldrich) allergen (APO) were mixed 1:9 (v/v) immediately before administration. Mice received four intraperitoneal sensitizations and the intranasal challenge every 4 days (0, 4, 8, 12, 16) with 50 uL of allergen. […]
Levels of secreted glycoprotein were measured with modified ELISA by the existing method (Lee, S. H. et al., (2004) J. Allergy Clin. Immunol. 113, 72778.). […]
40 ul of each sample was transferred to an ELSA plate Greiner, Kremsmunster, Austria), and incubated at 37° C. for 2 h. […] After final washing upon the completion of the reaction, 70 ul of alkaline phosphatase substrate (5 mmol in 0.1 mol/L alkaline buffer, Sigma-Aldrich) was added, and developed until a mucin standard curve was readily apparent. After termination of the reaction with addition of 40 ul of 0.5 N sodium hydroxide, optical density was measured at 405 nm by an ELISA reader (BioRad, Hercules, Calif., USA).

C57BL/6J mice [4] = assay: Lung microstructure observation (PAS-stained lung slides) in APO-induced asthma model
Method: as §1, §3
Finally, the experimental mice were sacrificed, and lung slide specimens stained with periodic acid Schiff (PAS) were prepared. Then, changes of inflammatory cells and goblet cells were observed (arrowhead: mucin-positive goblet cell, arrow: inflammatory cell).

B1: GG-AP1L: human ferritin light chain having AP1L (CRKRLDRNC) inserted in GG cassette; AP1-retaining ferritin cage used in asthma model (protein)
chain: MSSQIRQNYSTDVEAAVNSLVNLYLQASYTYLSLGFYFDRDDVALEGVSHFFRELAEEKREGYERLLKMQNQRGGRALFQDIKKPAEDEWGKTPDAMKAAMALEKKLNQALLDLHALGSARTDPHLCDFLETHFLDEEVKLIKKMGDHLTNLHRGSCRKRLDRNCGGPEAGLGEYLFERLTLKHD
modifications: left off: small tags and cut ends
notes: AP1-retaining ferritin cage used in asthma model
C57BL/6J mice [1]
  airway hyper-responsiveness (AHR): significantly suppressed
C57BL/6J mice [2]
  count of eosinophils in BAL fluid: significantly decreased
  count of inflammation cells in bronchoalveolar lavage (BAL) fluid: significantly decreased
C57BL/6J mice [3]
  amount of secreted glycoprotein in BAL fluid: significantly reduced
C57BL/6J mice [4]
  counts of mucus-producing goblet cells: significantly reduced
  counts of peribronchial inflammatory cells: significantly reduced
